Key:
Settings in all cases: both partners purified
[1] = target: T1, wild-type reaction center-light harvesting complex 1 (RC-LH1), His10-tag on the RC H-subunit (Rhodobacter sphaeroides, UniProt P0C0Y7 1-260; P0C0Y8 1-282; P0C0Y9 1-308; P0C0X9 1-55; P0C0Y1 7-49; P13402 1-82); assay: single-molecule force spectroscopy (AFM, PF-QNM); cyt c2-His6 on the AFM probe, His10-tagged RC-LH1 on the SiOx substrate; oxidized RC-LH1, oxidized cyt c2 (probe treated with 0.8 mM potassium ferricyanide); 10 mM HEPES pH 7.4, 10 mM NaCl
[2] = target: T2, D(M184)K mutant RC-LH1 complex, His10-tag on the RC H-subunit (Rhodobacter sphaeroides, UniProt P0C0Y7 1-260; P0C0Y8 1-282; P0C0Y9 1-308; P0C0X9 1-55; P0C0Y1 7-49; P13402 1-82, D(M184)K); assay: as above
[3] = target: T3, N(M188)D mutant RC-LH1 complex, His10-tag on the RC H-subunit (Rhodobacter sphaeroides, UniProt P0C0Y7 1-260; P0C0Y8 1-282; P0C0Y9 1-308; P0C0X9 1-55; P0C0Y1 7-49; P13402 1-82, N(M188)D); assay: as above
[4] = target: T4, Q(L264)E mutant RC-LH1 complex, His10-tag on the RC H-subunit (Rhodobacter sphaeroides, UniProt P0C0Y7 1-260; P0C0Y8 1-282; P0C0Y9 1-308; P0C0X9 1-55; P0C0Y1 7-49; P13402 1-82, Q(L264)E); assay: as above
[5] = target: T1, wild-type reaction center-light …; assay: single-molecule force spectroscopy (AFM, PF-QNM); cyt c2-His6 on the AFM probe via Ni2+-NTA and a PEG linker, His10-tagged RC-LH1 or RC-only complexes on a Ni2+-NTA SiOx substrate; oxidized RC, reduced cyt c2; 10 mM HEPES pH 7.4, 10 mM NaCl
[6] = target: T2, D(M184)K mutant RC-LH1 complex, …; assay: as above
[7] = target: T3, N(M188)D mutant RC-LH1 complex, …; assay: as above
[8] = target: T4, Q(L264)E mutant RC-LH1 complex, …; assay: as above

B1: cytochrome c2 (cyt c2), His6-tagged (natural protein)
chain: QEGDPEAGAKAFNQCQTCHVIVDDSGTTIAGRNAKTGPNLYGVVGRTAGTQADFKGYGEGMKEAGAKGLAWDEEHFVQYVQDPTKFLKEYTGDAKAKGKMTFKLKKEADAHNIWAYLQQVAVRP
notes: cytochrome c2 of Rhodobacter sphaeroides (gene cycA); the His6-tag follows the C-terminal residue Pro124; Carries a heme cofactor; used pre-reduced (dithionite and phenazine methosulfate) or pre-oxidized (ferricyanide), the redox state is told in the assay; also called reduced cyt c2; oxidized cyt c2; not shown: His6, C-terminal, kept
Binder B1 has a cumulative interaction probability [1] of 32%, a cumulative interaction probability [2] of 20% and a cumulative interaction probability [3] of 37%. It also gave a cumulative interaction probability [4] of 36%, a cumulative interaction probability [5] of roughly 34% and a cumulative interaction probability [6] of 24%. It also gave a cumulative interaction probability [7] of 40% and a cumulative interaction probability [8] of 39%.

— publication PMC11273609, “Single-Molecule Detection of the Encounter and Productive Electron Transfer Complexes of a Photosynthetic Reaction Center” (Journal of the American Chemical Society, 2024)
